Assay results from patent US11951128B2, “Compositions and methods for the isolation and/or generation of specific CD4+ and CD8+ T-cell subsets” (LA JOLLA INSTITUTE FOR ALLERGY AND IMMUNOLOGY, priority 2017, dated 2024).

What was measured:
B16 tumor cells = test: MHC class II expression on B16 tumor cells; format: cell-based, mouse
From the text: As a result, most transferred CD4 CTL died in vivo. In addition, activated anti-tumor specific CD8 CTL kill the tumor cells in response to detecting their Ag on the tumor cells presented by MHC class I (OVA Ag on the B16-OVA). In addition they also secrete IFNg which in turn upregulate MHC class II expression on the tumor cells (right panel). Anti-tumor reactive CD8 T-cells become restrained (induction of PD-1) or undergo TL- or activation-induced cell death. Therefore, a combination of anti-tumor CD8 T-cells (or NK T-cells or DN T-cells) and anti-tumor CD4 CTL which can kill tumor cells once MHC class II is induced, can be a powerful anti-tumor immunotherapy.

CD8ab T-cells = test: induction of CD8αα on in vitro activated CD8ab T-cells, measured with TL tetramer; format: cell-based, mice; settings: for generation of CD8αα effector memory precursor cells: WT, IL10−/− or IL21−/− CD8ab T-cells, anti-CD3/CD28, with or without IL12
Protocol: CD8ab T-cells isolated from wild type mice (WT) or IL10 deficient mice (IL10−/−), or IL21 deficient mice (IL21−/−) were activated in vitro with anti-CD3/CD28 and with or without IL12. Induction of CD8αα was measured using TL tetramer.

IFNg: soluble cytokine, the only member of the type II class of interferons
MHC class II (I-A^b) expression on tumor cells (B16 tumor cells): induce MHC class II (I-A^b)

IL-21: anti-inflammatory cytokine
generation of CD8αβ TEM/RM (CD8ab T-cells): counteract
generation of CD8αα effector memory precursor cells (CD8ab T-cells): inhibit

B1: IL-10: anti-inflammatory cytokine (protein, UniProt P22301 19-178, looked up)
Interleukin-10: SPGQGTQSENSCTHFPGNLPNMLRDLRDAFSRVKTFFQMKDQLDNLLLKESLLEDFKGYLGCQALSEMIQFYLEEVMPQAENQDPDIKAHVNSLGENLKTLRLRLRRCHRFLPCENKSKAVEQVKNAFNKLQEKGIYKAMSEFDIFINYIEAYMTMKIRN
generation of CD8αβ TEM/RM (CD8ab T-cells): counteract
generation of CD8αα effector memory precursor cells (CD8ab T-cells): inhibit

B2: IL-12: pro-inflammatory cytokine (protein, UniProt P29459 23-219; P29460 23-328, looked up)
Interleukin-12 subunit alpha: RNLPVATPDPGMFPCLHHSQNLLRAVSNMLQKARQTLEFYPCTSEEIDHEDITKDKTSTVEACLPLELTKNESCLNSRETSFITNGSCLASRKTSFMMALCLSSIYEDLKMYQVEFKTMNAKLLMDPKRQIFLDQNMLAVIDELMQALNFNSETVPQKSSLEEPDFYKTKIKLCILLHAFRIRAVTIDRVMSYLNAS
Interleukin-12 subunit beta: IWELKKDVYVVELDWYPDAPGEMVVLTCDTPEEDGITWTLDQSSEVLGSGKTLTIQVKEFGDAGQYTCHKGGEVLSHSLLLLHKKEDGIWSTDILKDQKEPKNKTFLRCEAKNYSGRFTCWWLTTISTDLTFSVKSSRGSSDPQGVTCGAATLSAERVRGDNKEYEYSVECQEDSACPAAEESLPIEVMVDAVHKLKYENYTSSFFIRDIIKPDPPKNLQLKPLKNSRQVEVSWEYPDTWSTPHSYFSLTFCVQVQGKSKREKKDRVFTDKTSATVICRKNASISVRAQDRYYSSSWSEWASVPCS
generation of CD8αβ TEM/RM (CD8ab T-cells): promotes
generation of CD8αα effector memory precursor cells (CD8ab T-cells): promotes
